Changes are numbered by the printed parent chain. Each block holds one binder with its values, some of them ahead of it.
Key:
mouse FcγRIIb [1] = target: T1, mouse FcγRIIb (mouse, UniProt P08101 30-210); experiment: SPR
T1 sequence (looked up): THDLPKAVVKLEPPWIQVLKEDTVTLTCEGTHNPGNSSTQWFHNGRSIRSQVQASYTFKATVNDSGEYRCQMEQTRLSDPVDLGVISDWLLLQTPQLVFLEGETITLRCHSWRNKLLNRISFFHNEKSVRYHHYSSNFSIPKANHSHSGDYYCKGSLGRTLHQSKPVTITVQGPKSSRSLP

mouse FcγRIII [2] = target: T2, mouse FcγRIII (mouse, UniProt P08508 31-215); experiment: SPR
T2 sequence (looked up): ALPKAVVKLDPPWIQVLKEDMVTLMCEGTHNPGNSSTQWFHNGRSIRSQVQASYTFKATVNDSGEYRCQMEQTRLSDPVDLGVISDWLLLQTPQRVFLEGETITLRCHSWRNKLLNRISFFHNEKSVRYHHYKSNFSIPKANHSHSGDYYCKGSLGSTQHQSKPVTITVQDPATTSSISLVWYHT

mouse FcγRIIb [3] = target: T1, mouse FcγRIIb; experiment: SPR; remark: listed apart in the source
mouse FcγRIII [4] = target: T2, mouse FcγRIII; experiment: SPR; remark: listed apart in the source
[5] = target: human IgA (recombinant, variable region from an anti-human IL6R antibody) (human); experiment: SPR
human IgA (hIgA) = experiment: SPR, comparison of calcium conditions
human FcγRIIa type R [6] = target: T3, human FcγRIIa type R (human, UniProt P12318 34-217); experiment: ratio of SPR KD values
T3 sequence (looked up): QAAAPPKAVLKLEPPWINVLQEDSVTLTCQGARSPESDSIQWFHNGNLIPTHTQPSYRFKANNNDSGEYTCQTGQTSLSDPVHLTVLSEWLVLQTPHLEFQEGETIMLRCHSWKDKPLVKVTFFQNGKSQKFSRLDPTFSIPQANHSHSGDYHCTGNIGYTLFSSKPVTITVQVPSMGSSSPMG

human FcγRIIb [7] = target: T4, human FcγRIIb (human, UniProt P31994 43-217); experiment: ratio of SPR KD values
T4 sequence (looked up): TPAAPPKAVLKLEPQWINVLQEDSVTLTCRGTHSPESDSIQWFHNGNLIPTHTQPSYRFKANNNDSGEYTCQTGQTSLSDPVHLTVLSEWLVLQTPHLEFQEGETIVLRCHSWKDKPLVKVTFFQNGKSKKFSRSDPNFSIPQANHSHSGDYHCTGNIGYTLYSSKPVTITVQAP

[8] = target: human FcγRIa extracellular domain with C-terminal His tag (human, UniProt P12314 16-292); experiment: SPR
[9] = target: T5, human FcγRIIa type R (Arg131) extracellular domain with C-terminal His tag (human, UniProt P12318 34-217); experiment: SPR
T5 sequence (looked up): T3 sequence (looked up)

[10] = target: T6, human FcγRIIb extracellular domain with C-terminal His tag (human, UniProt P31994 43-217); experiment: SPR
T6 sequence (looked up): T4 sequence (looked up)

FcγRIa = FcγRIa (human, UniProt P12314 16-292); experiment: SPR
FcγRIIa type R = target: T7, FcγRIIa type R (human, UniProt P12318 34-217); experiment: SPR
T7 sequence (looked up): T3 sequence (looked up)

FcγRIIa type H = target: T8, FcγRIIa type H (human, UniProt P12318 34-217); experiment: SPR
T8 sequence (looked up): T3 sequence (looked up) with R134H

FcγRIIb = target: T9, FcγRIIb (human, UniProt P31994 43-217); experiment: SPR
T9 sequence (looked up): T4 sequence (looked up)

FcγRIIIa type V = FcγRIIIa type V (human, UniProt P08637 17-208); experiment: SPR
human FcγRIIa type R [11] = target: T3, human FcγRIIa type R; experiment: SPR, amount bound per captured antibody
human FcγRIIb [12] = target: T4, human FcγRIIb; experiment: SPR, amount bound per captured antibody

FcγRIIIa type V, sequence (P08637 17-208 F176V): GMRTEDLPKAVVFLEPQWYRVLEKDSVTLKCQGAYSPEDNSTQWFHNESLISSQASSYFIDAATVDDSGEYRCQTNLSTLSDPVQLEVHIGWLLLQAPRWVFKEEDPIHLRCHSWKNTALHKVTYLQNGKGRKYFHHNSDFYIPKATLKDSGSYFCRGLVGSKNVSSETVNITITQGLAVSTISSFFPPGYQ
FcγRIa, sequence (P12314 16-292): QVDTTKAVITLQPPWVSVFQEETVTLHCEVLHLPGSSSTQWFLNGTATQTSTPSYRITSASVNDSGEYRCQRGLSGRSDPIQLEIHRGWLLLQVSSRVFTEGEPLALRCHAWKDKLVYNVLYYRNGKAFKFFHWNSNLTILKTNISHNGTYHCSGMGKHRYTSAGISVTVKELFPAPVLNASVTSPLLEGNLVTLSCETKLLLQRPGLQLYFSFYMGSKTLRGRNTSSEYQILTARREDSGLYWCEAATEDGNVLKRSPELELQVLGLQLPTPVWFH
human FcγRIa extracellular domain with C-terminal His tag, sequence (P12314 16-292): as above

B2: GA2-IgG1 (antibody, V domains shown)
VH: QVQLVQSGAEVKKPGSSVKVSCKASGGTFSSYAISWVRQAPGQGLEWMGGIIPIFGTANYAQKFQGRVTITADESTSTAYMELSSLRSEDTAVYYCARPRWETAISSDAFDIWGQGTMVTVSS
VL: DIQMTQSPSSLSASVGDRVTITCRASQSISDDLNWYQQKPGKAPKLLIYEASNLQSGVPSRFSGSGSGTDFTLTISSLQPEDFATYYCQQHSSSPLTFGQGTKVEIKR
- kon [5]: 400000 M⁻¹ s⁻¹

B3: GA2-IgG1 (antibody, V domains shown)
VH: B2 VH
VL: B2 VL
- Ca-dependent hIgA-binding activity (fold) (human IgA (hIgA)): ≥ 100 fold

B6: IL6R-BP198/IL6R-L (antibody, human IgG1, kappa)
heavy: QVQLQESGPGLVKPSETLSLTCAVSGHSISHDHAWSWVRQPPGEGLEWIGFISYSGITNYNPSLQGRVTISRDNSKNTLYLQMNSLRAEDTAVYYCARSLARTTAMDYWGEGTLVTVSSASTKGPSVFPLAPSSKSTSGGTAALGCLVKDYFPEPVTVSWNSGALTSGVHTFPAVLQSSGLYSLSSVVTVPSSSLGTQTYICNVNHKPSNTKVDKKVEPKSCDKTHTCPPCPAPDYLGGDSVFLFPPKPKDTLMISRTPEVTCVVVDVSDEDGEVKFNWYVDGVEVHNAKTKPREEQYNSTYRVVSVLTVLHQDWLNGKEYKCKVSNAALPKPIEKTISKAKGQPREPQVYTLPPSRDELTKNQVSLTCLVKGFYPSDIAVEWESNGQPENNYKTTPPVLDSDGSFFLYSKLTVDKSRWQQGNVFSCSVMHEALHNHYTQESLSLSP
light: not shown
- relative binding activity (FcγRIa): 104 % of control
- relative binding activity (FcγRIIa type R): 449 % of control
- relative binding activity (FcγRIIa type H): 188 % of control
- relative binding activity (FcγRIIb): 164 % of control
- relative binding activity (FcγRIIIa type V): 157 % of control

Second part, the binder after the results:

- binding ratio compared to mIgG1 (mouse FcγRIIb [1]): 159
- binding ratio compared to mIgG1 (mouse FcγRIII [2]): 6.2
- Kd (mouse FcγRIIb [3]): 1.32 nM
- Kd (mouse FcγRIII [4]): 45.4 nM
B1: VH3/L(WT)-mIgG1-MB367 (antibody)
heavy: QVQLQESGPGLVKPSETLSLTCAVSGHSISHDHAWSWVRQPPGEGLEWIGFISYSGITNYNPSLQGRVTISRDNSKNTLYLQMNSLRAEDTAVYYCARSLARTTAMDYWGEGTLVTVSSAKTTPPSVYPLAPGSAAQTNSMVTLGCLVKGYFPEPVTVTWNSGSLSSGVHTFPAVLQSDLYTLSSSVTVPSSTWPSETVTCNVAHPASSTKVDKKIVPRDCGCKPCICEANEVEDVFIFPPKPKDVLTITLTPKVTCVVVDISKDDPEVQFSWFVDDVEVHTAQTQPREEQFNSTFRSVSELPIMHQDWLNGKEFKCRVNSAAFPAPIEKTISKTKGRPKAPQVYTIPPPKEQMAKDKVSLTCMITDFFPEDITVEWQWNGQPAENYKNTQPIMDTDGSYFVYSKLNVQKSNWEAGNTFTCSVLHEGLHNHHT
light: not shown

- binding relative to IL6R-BP230/IL6R-L (human FcγRIIa type R [6]): 0.9 fold
- binding relative to IL6R-BP230/IL6R-L (human FcγRIIb [7]): 1.1 fold
B4: IL6R-BP478/IL6R-L (antibody)
heavy: QVQLQESGPGLVKPSETLSLTCAVSGHSISHDHAWSWVRQPPGEGLEWIGFISYSGITNYNPSLQGRVTISRDNSKNTLYLQMNSLRAEDTAVYYCARSLARTTAMDYWGEGTLVTVSSASTKGPSVFPLAPCSRSTSESTAALGCLVKDYFPEPVTVSWNSGALTSGVHTFPAVLQSSGLYSLSSVVTVPSSSLGTKTYTCNVDHKPSNTKVDKRVESKYGPPCPPCPAPDLLGDDSVFLFPPKPKDTLMISRTPEVTCVVVDVSDEDGEVKFNWYVDGVEVHNAKTKPREEQDNSTYRVVSVLTVLHQDWLNGKEYKCKVSNKALPRPIEKTISKAKGQPREPQVYTLPPSRDELTKNQVSLTCLVKGFYPSDIAVEWESNGQPENNYKTTPPVLDSDGSFFLYSKLTVDKSRWQQGNVFSCSVMHEALHNHYTQESLSLSP
light: not shown

- binding result [8]: binds
- KD (IIaR) of parent polypeptide/KD (IIaR) of altered polypeptide [9]: 1.5
- KD (IIb) of parent polypeptide/KD (IIb) of altered polypeptide [10]: 128
B5: IL6R-BP500/IL6R-L (antibody, human IgG1, kappa)
heavy: B6 heavy with D235E, Y236L, G239D, V266I, S269A, D270E, Y298D, A328K, K332A
light: not shown

- relative binding activity (IL6R-F652/IL6R-L = 100) (human FcγRIIa type R [11]): 100
- relative binding activity (IL6R-F652/IL6R-L = 100) (human FcγRIIb [12]): 100
B7: IL6R-F652/IL6R-L (antibody, human IgG1, kappa)
heavy: B6 heavy with D235E, Y236L, M254Y, D270H, G273P, A328K, K332A, N436Y, E441K
light: not shown
